Laboratory results reported in the supplement of paper PMC10567573.

B1: TFE3 (parent)
chain: ELPNIKREISETEAKALLKERQKK

Variants of: B1
Test: protein stability index of a GFP-peptide fusion (GPS, HEK-293T) (PSI 1-6); higher = more stable
Conditions: c terminus: a fixed tail appended
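Further: lentivirally expressed fusions sorted by FACS into six bins by GFP to DsRed ratio, PSI derived from sequencing read proportions per bin multiplied by bin number.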

Protein stability index, by site and new letter:
K23: C 3.09, D 2.56, A 2.19
L18: T 2.65, Y 2.92, Q 2.96, A 2.67, W 2.37, N 2.4, C 2.6, I 3.06, S 2.77, M 2.05, V 2.2, G 1.87, P 2.77, H 2.56, K 3.19, R 2.32, E 2.5, D 2.07, F 2.28
K15: M 2.41, H 2.94, D 1.98, V 2.02, S 2.75, E 1.86, R 3.15, L 2.08, W 2.42, G 2.34, F 2.54, Y 2.31, N 2.22, P 4.59, A 2.5, C 3.29, T 2.3, Q 2.46, I 2.21
L17: M 2.71, V 3.14, Y 2.48, E 2.25, H 2.12, A 2.74, C 3.09, R 3.27, F 2.38, N 2.56, T 2.68, Q 2.56, S 2.32, P 3.56, W 2.7, K 3.17, I 2.98, D 2.13, G 2.76
A16: M 2.63, N 4.09, H 4.11, W 2.57, Y 2.37, T 2.96, C 2.2, Q 4.6, I 3.16, V 2.79, R 3.68, G 3.47, P 4.2, E 4.09, S 2.87, K 3.91, L 2.34, F 2.08, D 4.48
A14: K 2.75, N 2.64, R 2.51, S 2.22, M 2.05, Y 2.49, V 2.45, P 3.06, L 2.54, T 2, Q 2.39, W 2.69
E20: M 2.59, K 2.83, V 2.52, C 2.07, H 2.9, I 2.29, W 2.82, P 2.52, R 3.29, F 2.03, N 2.9, A 2.99, Q 2.77, Y 2.5, S 2.67, G 2.78, D 2.79, T 3.07, L 2.44
R21: G 2.28, M 2.25, Q 2.73, F 2.38, P 2.32, E 2.74, H 2.63, V 2.53, S 1.81, W 2.15, I 2.66, Y 2.72, K 2.5, L 2.97, C 2.43, D 2.88, T 2.82, A 3.07, N 2.91
Q22: P 2.34, Y 1.8, W 2.4, S 2.73, M 2.75, V 2.83, A 2.73, T 2.52, D 2.11, H 2.73, I 2.52, C 2.71, L 2.24, G 2.77, N 2.5, K 2.35, E 2, R 2.9, F 2.34
K19: M 2.89, V 2.8, D 2.52, R 2.32, Q 2.83, E 2.62, A 2.7, C 2.07, I 2.84, F 2.65, H 2.36, P 2.29, W 2.29, G 1.71, N 2.57, T 2.42, L 2.84, Y 3.06, S 2.53
